Publication PMC3137634 (2011)

Tests used:
Human TNFR1/Fc [1] = target: T1, Human TNFR1/Fc (human, UniProt P19438 30-211); assay: SPR
T1 chain: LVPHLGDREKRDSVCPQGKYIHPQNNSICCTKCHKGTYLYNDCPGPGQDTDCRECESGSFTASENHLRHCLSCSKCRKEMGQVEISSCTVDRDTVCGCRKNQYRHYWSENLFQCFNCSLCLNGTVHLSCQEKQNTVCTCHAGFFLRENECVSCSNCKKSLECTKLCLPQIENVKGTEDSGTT

Human TNFR1/Fc [2] = target: T1, Human TNFR1/Fc; assay: SPR

B1: recombinant HP986 (natural protein)
chain: METFFSLHVPNRRIKQNGIIDEKSLEKIQERKNLSSLLYEHRARIIPLYKRINENHAKNKTINICENNLKLFYKDHQVCVNIDKKEIKLRYSEDEDDFRKYIIGGWFEEYIYCELLELLDKQVICDLRLNMILGVGNTNATQGDKHPIYTELDIAFSDGKNLYVAECKSGELKNKGVLAALSADAQIFGGANAKCILISIDGNLGQVLQEKVKILNIEFIFKYFKKNIENYINNSRR
Human TNFR1/Fc [1]
  Ka: 1.39e+07 M⁻¹
Human TNFR1/Fc [2]
  Kd: 72.1 nM
